This note sets out measurements from patent US20050013808A1, “Nitroreductase enzymes” (priority 2001, published 2005).

The subject of data set [1] is UT5600 cells (NTR−) lysogens. The experiment in a line: Replica-plate screening of mutant NTR-expressing lysogens on increasing CB1954 (growth score). As to conditions: for Score: growth of lysogens on agar with kanamycin, IPTG and 0-400 μM CB1954, wild type = 4, higher = more sensitive. It is filed as cell-based, E. coli. The arrangement: key to Score: 0: Good growth on all concentrations of CB 1954 = vector; Good growth on 100 and 200, faint on 300, ring of growth on 400 μM; Good growth on 100 and 200, ring growth on 300, none or very faint on 400 μM; Good growth on 100, faint to good on 200, none or very faint on 300 and 400 μM; 4: Good growth on 100 μM, none to ring growth on 200 μM = wild type; Good growth on 50 μM, ring on 100 μM, none on 200, 300 or 400 μM; 6: Faint growth on 50 μM, ring on 100 μM; 7: Good growth on 50 μM, none on 100 μM; 8: Ring growth on 50 μM, none on 100 μM; 9: None or very faint growth on 50 μM, none on 100 μM; 10: None or ring growth on 35 μM. How it is done:
The ligation mix was packaged (Stratagene) into lambda bacteriophage particles that were used to infect UT5600 cells (NTR ^−). As a control wild type NTR was also cloned into this vector (JG16C2). Kanamycin resistant lysogens were selected on agar plates ([…] kanamycin) then individually grown overnight in a well of a 96-well plate in LB+Kanamycin. The clones were replica plated on to a series of plates containing Tris-buffered (50 mM, pH 7.5) LB agar with kanamycin, IPTG (0.1 mM) and CB1954 at a concentration of 0, 25, 35, 50, 100, 200, 300 or 400 μM (see FIG. 3). […]

For data set [2], the system named is UT5600 cells (NTR−) lysogens. The experiment in a line: Survival curve (colony count) IC50 of CB1954 in NTR-expressing lysogens. It is filed as cell-based, E. coli. To be noted: concentration of CB1954 giving 50% reduction in colony number after 36h growth; lysogen expressing the named NTR. The protocol:
To quantify the improvement in NTR activity in the clones in a less subjective way, a few clones were selected for further study by determining their survival curves. The lysogens were grown overnight in LB +kanamycin and diluted to approximately 1 cell per μl based on the OD. In duplicate, 100 μl diluted cells were plated into Tris-buffered LB plates containing kanamycin, IPTG and 0-400 μM CB1954. After 36h growth the number of colonies on each plate were counted and expressed as a percentage of the number present on the plates with no CB1954. Survival curves showing % survival versus concentration of CB 1954 were plotted (see examples in FIG. 7) and the IC50 determined as the concentration of CB 1954 which kills gives a 50% reduction in colony number (Table 3 and FIG. 8). A few clones containing mutations resulting in an enhanced sensitivity to CB 1954 were selected for further study.

Values joined by “and” are separate entries in the source; they are usually repeats but may differ in a detail not shown here. Equal entries are not always repeated.

B1: F124M (protein)
chain: MDIISVALKRHSTKAFDASKKLTPEQAEQIKTLLQYSPSSTNSQPWHFIVASTEEGKARVAKSAAGNYVFNERKMLDASHVVVFCAKTAMDDVWLKLVVDQEDADGRFATPEAKAANDKGRKFMADMHRKDLHDDAEWMAKQVYLNVGNFLLGVAALGLDAVPIEGFDAAILDAEFGLKEKGYTSLVVVPVGHHSVEDFNATLPKSRLPQNITLTEV
Take B1: in data set [1], the “nitroreductase activity with CB1954 compared with wild-type” value (“nitroreductase activity with CB1954” for short) is given as “substantially greater activity with CB 1954 than the wild-type” and the Score amounted to 9. For the same molecule, in data set [2], the half-maximal inhibitory concentration (IC50) (commonly the point on the concentration scale where inhibition reaches its midpoint) was determined as 33 µM.

B2: F124T (protein)
chain: MDIISVALKRHSTKAFDASKKLTPEQAEQIKTLLQYSPSSTNSQPWHFIVASTEEGKARVAKSAAGNYVFNERKMLDASHVVVFCAKTAMDDVWLKLVVDQEDADGRFATPEAKAANDKGRKFTADMHRKDLHDDAEWMAKQVYLNVGNFLLGVAALGLDAVPIEGFDAAILDAEFGLKEKGYTSLVVVPVGHHSVEDFNATLPKSRLPQNITLTEV
With B2, in data set [1], the “nitroreductase activity with CB1954” value is given as “substantially greater activity with CB 1954 than the wild-type”; the Score was 7-9 and 7-8. Moreover, the IC50 in data set [2] is 56 µM and 87 µM.

B3: F124G (protein)
chain: MDIISVALKRHSTKAFDASKKLTPEQAEQIKTLLQYSPSSTNSQPWHFIVASTEEGKARVAKSAAGNYVFNERKMLDASHVVVFCAKTAMDDVWLKLVVDQEDADGRFATPEAKAANDKGRKFGADMHRKDLHDDAEWMAKQVYLNVGNFLLGVAALGLDAVPIEGFDAAILDAEFGLKEKGYTSLVVVPVGHHSVEDFNATLPKSRLPQNITLTEV
For B3, in data set [1], the “nitroreductase activity with CB1954” value is “substantially greater activity with CB 1954 than the wild-type” and the Score amounted to 7. This molecule yielded a concentration for half-maximal inhibition (IC50) in data set [2] of 49 µM.

B4: F124S (protein)
chain: MDIISVALKRHSTKAFDASKKLTPEQAEQIKTLLQYSPSSTNSQPWHFIVASTEEGKARVAKSAAGNYVFNERKMLDASHVVVFCAKTAMDDVWLKLVVDQEDADGRFATPEAKAANDKGRKFSADMHRKDLHDDAEWMAKQVYLNVGNFLLGVAALGLDAVPIEGFDAAILDAEFGLKEKGYTSLVVVPVGHHSVEDFNATLPKSRLPQNITLTEV
Turning to B4, in data set [1], the “nitroreductase activity with CB1954” value was “substantially greater activity with CB 1954 than the wild-type” and the Score is on record as 7-9. Also, in data set [2], the half-inhibitory concentration (IC50) is 41 µM.

B5: Y68C (protein)
chain: MDIISVALKRHSTKAFDASKKLTPEQAEQIKTLLQYSPSSTNSQPWHFIVASTEEGKARVAKSAAGNCVFNERKMLDASHVVVFCAKTAMDDVWLKLVVDQEDADGRFATPEAKAANDKGRKFFADMHRKDLHDDAEWMAKQVYLNVGNFLLGVAALGLDAVPIEGFDAAILDAEFGLKEKGYTSLVVVPVGHHSVEDFNATLPKSRLPQNITLTEV
With B5, the Score in data set [1] came out at 5. This molecule also displayed a 50% inhibitory concentration (IC50) in data set [2] of 105 µM.

B6: Y68S (protein)
chain: MDIISVALKRHSTKAFDASKKLTPEQAEQIKTLLQYSPSSTNSQPWHFIVASTEEGKARVAKSAAGNSVFNERKMLDASHVVVFCAKTAMDDVWLKLVVDQEDADGRFATPEAKAANDKGRKFFADMHRKDLHDDAEWMAKQVYLNVGNFLLGVAALGLDAVPIEGFDAAILDAEFGLKEKGYTSLVVVPVGHHSVEDFNATLPKSRLPQNITLTEV
For the molecule B6, in data set [1], the Score is 5-7. In data set [2], this molecule gave a concentration for half-maximal inhibition (IC50) of 96 µM.

B7: F124Y (protein)
chain: MDIISVALKRHSTKAFDASKKLTPEQAEQIKTLLQYSPSSTNSQPWHFIVASTEEGKARVAKSAAGNYVFNERKMLDASHVVVFCAKTAMDDVWLKLVVDQEDADGRFATPEAKAANDKGRKFYADMHRKDLHDDAEWMAKQVYLNVGNFLLGVAALGLDAVPIEGFDAAILDAEFGLKEKGYTSLVVVPVGHHSVEDFNATLPKSRLPQNITLTEV
Take B7: in data set [1], the “nitroreductase activity with CB1954” value is “substantially greater activity with CB 1954 than the wild-type” and the Score is reported as 5-7. The molecule further yielded an IC50 in data set [2] of 66 µM.

B8: F124C (protein)
chain: MDIISVALKRHSTKAFDASKKLTPEQAEQIKTLLQYSPSSTNSQPWHFIVASTEEGKARVAKSAAGNYVFNERKMLDASHVVVFCAKTAMDDVWLKLVVDQEDADGRFATPEAKAANDKGRKFCADMHRKDLHDDAEWMAKQVYLNVGNFLLGVAALGLDAVPIEGFDAAILDAEFGLKEKGYTSLVVVPVGHHSVEDFNATLPKSRLPQNITLTEV
In the case of B8, in data set [1], the “nitroreductase activity with CB1954” value is reported as “substantially greater activity with CB 1954 than the wild-type” and the Score is listed as 7-9. In data set [2], this molecule had an IC50 of 36 µM.

B9: Y68N (protein)
chain: MDIISVALKRHSTKAFDASKKLTPEQAEQIKTLLQYSPSSTNSQPWHFIVASTEEGKARVAKSAAGNNVFNERKMLDASHVVVFCAKTAMDDVWLKLVVDQEDADGRFATPEAKAANDKGRKFFADMHRKDLHDDAEWMAKQVYLNVGNFLLGVAALGLDAVPIEGFDAAILDAEFGLKEKGYTSLVVVPVGHHSVEDFNATLPKSRLPQNITLTEV
Turning to B9, in data set [1], the Score is given as 5-7. Moreover, the IC50 in data set [2] came to 79 µM.

B10: F124A (protein)
chain: MDIISVALKRHSTKAFDASKKLTPEQAEQIKTLLQYSPSSTNSQPWHFIVASTEEGKARVAKSAAGNYVFNERKMLDASHVVVFCAKTAMDDVWLKLVVDQEDADGRFATPEAKAANDKGRKFAADMHRKDLHDDAEWMAKQVYLNVGNFLLGVAALGLDAVPIEGFDAAILDAEFGLKEKGYTSLVVVPVGHHSVEDFNATLPKSRLPQNITLTEV
As to B10, in data set [1], the “nitroreductase activity with CB1954” value is listed as “substantially greater activity with CB 1954 than the wild-type” and the Score is 7-9. For the same molecule, the IC50 in data set [2] is 20 µM and 32 µM.

B11: F124Q (protein)
chain: MDIISVALKRHSTKAFDASKKLTPEQAEQIKTLLQYSPSSTNSQPWHFIVASTEEGKARVAKSAAGNYVFNERKMLDASHVVVFCAKTAMDDVWLKLVVDQEDADGRFATPEAKAANDKGRKFQADMHRKDLHDDAEWMAKQVYLNVGNFLLGVAALGLDAVPIEGFDAAILDAEFGLKEKGYTSLVVVPVGHHSVEDFNATLPKSRLPQNITLTEV
For B11, in data set [1], the “nitroreductase activity with CB1954” value was “substantially greater activity with CB 1954 than the wild-type” and the Score is given as 8. This molecule showed an IC50 in data set [2] of 39 µM.

B12: F124V (protein)
chain: MDIISVALKRHSTKAFDASKKLTPEQAEQIKTLLQYSPSSTNSQPWHFIVASTEEGKARVAKSAAGNYVFNERKMLDASHVVVFCAKTAMDDVWLKLVVDQEDADGRFATPEAKAANDKGRKFVADMHRKDLHDDAEWMAKQVYLNVGNFLLGVAALGLDAVPIEGFDAAILDAEFGLKEKGYTSLVVVPVGHHSVEDFNATLPKSRLPQNITLTEV
On to B12, for which, in data set [1], the “nitroreductase activity with CB1954” value is on record as “substantially greater activity with CB 1954 than the wild-type” and the Score is 7-9. Further, the half-maximal inhibitory concentration (IC50) in data set [2] was 37 µM and 53 µM.

B13: F124W (protein)
chain: MDIISVALKRHSTKAFDASKKLTPEQAEQIKTLLQYSPSSTNSQPWHFIVASTEEGKARVAKSAAGNYVFNERKMLDASHVVVFCAKTAMDDVWLKLVVDQEDADGRFATPEAKAANDKGRKFWADMHRKDLHDDAEWMAKQVYLNVGNFLLGVAALGLDAVPIEGFDAAILDAEFGLKEKGYTSLVVVPVGHHSVEDFNATLPKSRLPQNITLTEV
Take B13: in data set [1], the “nitroreductase activity with CB1954” value is given as “substantially greater activity with CB 1954 than the wild-type” and the Score was 5-7. Besides, the half-maximal inhibitory concentration (IC50) in data set [2] worked out at 56 µM.

B14: Y68A (protein)
chain: MDIISVALKRHSTKAFDASKKLTPEQAEQIKTLLQYSPSSTNSQPWHFIVASTEEGKARVAKSAAGNAVFNERKMLDASHVVVFCAKTAMDDVWLKLVVDQEDADGRFATPEAKAANDKGRKFFADMHRKDLHDDAEWMAKQVYLNVGNFLLGVAALGLDAVPIEGFDAAILDAEFGLKEKGYTSLVVVPVGHHSVEDFNATLPKSRLPQNITLTEV
Take B14: in data set [1], the Score was 5-7. In addition, the IC50 in data set [2] was 81 µM.
